T1: human CD24 (human, UniProt P25063 27-59, heavily glycosylated, GPI-anchored (as described in the background))
T1 construct: whole, on cells; Target of all cell-based FACS assays; also called hCD24; Cluster of differentiation 24
T1 chain (looked up): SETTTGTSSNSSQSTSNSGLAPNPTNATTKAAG


Columns and labels:
[1] = biological target: T1, human CD24; assay: FACS, MDA-MB-468 cells
Description: (§1) Sequences of some of antibodies from Table 1 were selected to generate and produce human IgG4 chimeric antibodies. […] The protocol for FACs analysis is described as follows: [0536] a. Digested cells using TrypLE™ Express Enzyme (IX); Centrifuged the harvested cells at 400 g for 5 min and discarding the supernatant. [0537] b. Washed the cells 2 times with cold FACS buffer by centrifuging at 400 g for 5 min and discarding the supernatant. [0538] c. […] Incubate at […] for 1 h. [0539] d. Washed the cells twice by using the condition in step b. Resuspended the cells with 100 μl/well diluted 2nd antibody, incubated at 4 degree for 1 h in the dark. [0540] e. Washed the cells twice by using the condition in step b. Resuspended the cells with 100 μl/well cold FACS buffer. Kept the cells in dark for FACS analysis.

[2] = biological target: T1, human CD24; assay: FACS, Nalm1 cells
Description: (§2) Screening & Expansion: The subcloning plates were screened by Acumen assay and the subclones with good binding ability were expanded to 24-wells for confirmation tests. The specificity and cross-reactivity of these subclones were confirmed with FACs analysis. […] Fluorescent dye-conjugated secondary antibody was used to detect the binding of the primary antibody with the cells. Median fluorescence intensity (MFI) was measured by FACs analysis.

[3] = biological target: T1, human CD24; assay: FACS, HT-29 cells
Description: as §1

[4] = biological target: T1, human CD24; assay: FACS, 5637 cells
Description: as §2

[5] = biological target: T1, human CD24; assay: FACS, 293F-hCD24 cells
Description: as §1

[6] = biological target: T1, human CD24; assay: FACS, MCF7 cells
Description: as §1

[7] = biological target: T1, human CD24; assay: FACS, A549 cells
Description: as §1

[8] = biological target: T1, human CD24; assay: FACS, H1975 cells
Description: as §2

[9] = biological target: T1, human CD24; assay: FACS, 5637 cells
Description: as §1

[10] = biological target: T1, human CD24; assay: FACS, Nalm1 cells
Description: as §1

[11] = biological target: T1, human CD24; assay: FACS, 293F-hCD24 cells
Description: as §2

[12] = biological target: T1, human CD24; assay: FACS, H1975 cells
Description: as §1

[13] = biological target: T1, human CD24; assay: FACS, CHOK1-hCD24 cells
Description: as §1

[14] = biological target: T1, human CD24; assay: FACS, MCF7 cells
Description: as §2

Row | Binder | EC50 [1] [nM] | FACS MFI [1] | FACS MFI [2] | EC50 [3] [nM] | Max MFI [3] | FACS MFI [4] | EC50 [5] [nM] | Max MFI [5] | EC50 [6] [nM] | EC50 [7] [nM] | Max MFI [7] | FACS MFI [8] | EC50 [9] [nM] | EC50 [10] [nM] | Max MFI [10] | FACS MFI [11] | EC50 [12] [nM] | EC50 [13] [nM] | Max MFI [13] | FACS MFI [14] | further results
1 | 81A1F8 (antibody, V domains shown, mouse monoclonal antibody) VH: EVQLQQSGPELVKPGASVKISCKATGYLFTGYYMNWVKQSPEKSLEWIGEINPNTGDTNNNQKFKAKATMTVDRSSSTAYMQLKRLTSEDSAVYYCVRRDYGTSLDYWGQGTTLTVSS VL: DVQITQSPSYLAASPGETITINCRASKSINKYLAWYQEKPGKTNKLLIHSGSTLQSGIPSRFSGSRSGTDFTLTISNLEPEDFAMYYCQQHNEYPITFGAGTKLELK | 5.23 | 24900 | 24800 | 2.93 | 3050 | 22200 | 1.7 | 10300 | 3 | 2.37 | 8660 | 10600 | 3.31 | 1.9 | 24800 | 10300 | 2.03 | 1.52 | 45900 | 11500 | 
2 | 56A7E3 (antibody, V domains shown, mouse monoclonal antibody) VH: EVQLQQSGPELVKPGASVKIPCKASGYTFTAYNMDWVKQSHGMSLEWIGDINPINGGTIYNQNFEGKATLTVDKSSSTAYLELRSLTSEDTAVYYCARRGSYYYGSSHYALDFWGQGTSVSVSS VL: DIQMTQITSSLSASLGDRVTITCRASQDISNYLNWYQQKPDGTVKLLIYYTSRLLSGVPSRFSGSGSGTDYSLTISNLEQEDIATYFCQQDHTLPRTFGGGTKLEIR | 16.7 | 15300 | 74600 | 18.1 | 1460 | 18500 | 7.52 | 26400 | 81.7 | 92.4 | 3320 | 2190 | 31.6 | 20.9 | 74600 | 26400 | 93.1 | 4.85 | 36700 | 9190 | 
3 | 58F10-1F6 (antibody, V domains shown, mouse monoclonal antibody) VH: EVQLRQSGPELVKPGAAVKISCKASGYSFTGYHMNWVKQSPEKSLEWIGEINPITSGITYNQIFKAKATLTVDKSSSTAYLQLKSLTSEDSAVYYCTRRDYGTSLDYWGQGTTLTVSS VL: DIQMTQITSSLSASLGDRVTITCRASQDISNYLNWYQQKPDGTVKLLIYYTSRLLSGVPSRFSGSGSGTDYSLTISNLEQEDIATYFCQQDHTLPRTFGGGTKLEIR | 38.9 | 49800 | 20900 | 10.8 | 4900 | 34200 | 24.1 | 58200 | 43.4 | 12.6 | 12600 | 17500 | 22.4 | 8.72 | 60300 | 7420 | 53.1 | 9.7 | 28100 | 17400 | 
4 | 71A4F12 (antibody, V domains shown, mouse monoclonal antibody) VH: EVQLQQSGPELVKPGASVKIPCKASGYTFTAYNMDWVKQSHGMSLEWIGDINPNNGDTVYNQNFKGKATLTVDKSSSTAYMELRSLTSEDTAVYYCARRGSYYYGSSHYALDFWGQGTSVSVSS VL: DIQMTQITSSLSASLGNRVTISCRASQDIRNYLNWYQQKPDGTVKLLIYYTSRLLSGVPSRFSGSGSGTDYSLTISNLEQEDIATYFCQQDNSLPRTFGGGTRLEIR | 11.7 | 32500 | 45000 | 5.46 | 4780 | 18600 | 6.74 | 39400 | 121 | 1.97 | 4410 | 7200 | 39.7 | 6.28 | 45000 | 7350 | 71.9 | 1.72 | 28800 | 2420 | Max MFI [6]: 12600

— patent US20240052052A1 (ANTENGENE BIOLOGICS, published 2024)
